The values that follow come from publication PMC5159797, “Phosphorylation of SKAP by GSK3β ensures chromosome segregation by a temporal inhibition of Kif2b activity” (Scientific Reports, 2016).

In this assay the target is T1, His-GSK3β (human, UniProt P49841 1-420).
T1 construct: GSK3β; the construct is not described further; The pull-down methods speak of His-tagged fusion proteins expressed in bacterial cells, the protein methods of insect cells; also called 6×His-GSK3β; His-tagged GSK3β; source: insect cells, purified (Ni-NTA agarose)
Nature of the assay: pull-down; GST fusion protein-bound sepharose beads incubated 2 h at 4 °C with purified MBP fusion proteins or His-tagged protein; PBS, 0.1% Triton X-100; anti-MBP or anti-His blot. The settings on record: both partners purified.

T1 sequence (P49841 whole entry, the tested form may be a part): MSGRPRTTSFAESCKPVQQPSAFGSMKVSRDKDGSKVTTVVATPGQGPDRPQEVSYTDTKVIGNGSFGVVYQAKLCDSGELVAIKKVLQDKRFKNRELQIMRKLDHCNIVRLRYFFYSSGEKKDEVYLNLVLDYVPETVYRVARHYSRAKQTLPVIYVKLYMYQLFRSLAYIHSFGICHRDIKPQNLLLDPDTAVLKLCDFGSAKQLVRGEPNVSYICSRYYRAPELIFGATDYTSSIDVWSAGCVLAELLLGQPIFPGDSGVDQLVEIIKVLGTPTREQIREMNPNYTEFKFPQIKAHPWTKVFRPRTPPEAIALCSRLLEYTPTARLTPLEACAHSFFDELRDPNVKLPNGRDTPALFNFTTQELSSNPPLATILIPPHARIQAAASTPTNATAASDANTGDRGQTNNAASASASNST

B1: GST-SKAP (natural protein, UniProt Q9Y448 1-316, looked up)
chain: MAAPEAPPLDRVFRTTWLSTECDSHPLPPSYRKFLFETQAADLAGGTTVAAGNLLNESEKDCGQDRRAPGVQPCRLVTMTSVVKTVYSLQPPSALSGGQPADTQTRATSKSLLPVRSKEVDVSKQLHSGGPENDVTKITKLRRENGQMKATDTATRRNVRKGYKPLSKQKSEEELKDKNQLLEAVNKQLHQKLTETQGELKDLTQKVELLEKFRDNCLAILESKGLDPALGSETLASRQESTTDHMDSMLLLETLQEELKLFNETAKKQMEELQALKVKLEMKEERVRFLEQQTLCNNQVNDLTTALKEMEQLLEM
notes: SKAP (small kinetochore-associated protein), full length, cloned into pGEX-5X-3; also called GST-tagged SKAP full length; GST-SKAP-WT; source: E. coli Rosetta (DE3), purified on glutathione-sepharose 4B
In the case of B1, the binding result is listed as “binds”.
